Assay results as given in patent publication US20210253711A1 (CULLINAN MICA, published 2021).
Values belong to the binder of their own block, whether it stands above or below them.

Key:
[1] = target: T1, Recombinant MICA*01 protein (Homo sapiens (Human), UniProt Q29983 24-307); test: ELISA, coated MICA*01, OD 450 nm
T1 construct: Coated on ELISA plates
T1 sequence: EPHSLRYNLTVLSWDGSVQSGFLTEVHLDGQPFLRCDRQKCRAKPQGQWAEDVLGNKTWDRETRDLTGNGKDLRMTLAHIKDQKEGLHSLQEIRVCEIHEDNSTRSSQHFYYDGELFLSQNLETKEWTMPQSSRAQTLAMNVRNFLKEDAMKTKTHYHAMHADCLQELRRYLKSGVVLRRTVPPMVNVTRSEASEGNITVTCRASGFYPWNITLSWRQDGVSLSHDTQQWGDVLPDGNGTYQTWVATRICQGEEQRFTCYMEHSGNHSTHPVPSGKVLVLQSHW
Experimental: (§1) Recombinant MICA*01, MICA*02, MICA*04, MICA*08, MICA*09, and MICB proteins were diluted to 1 μg/ml in 50 mM sodium carbonate buffer, pH 9.6, and coated onto high binding 96-well microplates (Corning #9018), 100 ng in 100 ul per well. The following morning, coated ELISA plates were washed three times with TBS-Tween-20, pH 7.4 and then blocked in SuperBlock T20 Blocking Buffer (Pierce #37536). After blocking, ELISA plates were washed once with TBS-T and incubated with serially diluted anti-MICA antibody (0-1 μg/ml) for approximately two hours at room temperature. Following the incubation, ELISA plates were washed three times with TBS-T and then incubated with Goat anti-Mouse IgG (H+L)-HRP conjugate (ThermoFisher Scientific #626520) for 45 minutes at room temperature with shaking (˜400 rpm). After the incubation, ELISA plates were washed three times with TBS-T and incubated with Super Sensitive Liquid Substrate TMB (Sigma #T4444), 100 ul per well, until color development was sufficient. The reaction was stopped with 1N sulfuric acid, 100 ul per well. Optical density (OD) values were measured at 450 nm using a microplate reader.

[2] = target: T2, Recombinant MICA*09 protein; test: ELISA, coated MICA*09, OD 450 nm
T2 construct: Coated on ELISA plates
T2 sequence (Q29983 whole entry, species assumed, looked up): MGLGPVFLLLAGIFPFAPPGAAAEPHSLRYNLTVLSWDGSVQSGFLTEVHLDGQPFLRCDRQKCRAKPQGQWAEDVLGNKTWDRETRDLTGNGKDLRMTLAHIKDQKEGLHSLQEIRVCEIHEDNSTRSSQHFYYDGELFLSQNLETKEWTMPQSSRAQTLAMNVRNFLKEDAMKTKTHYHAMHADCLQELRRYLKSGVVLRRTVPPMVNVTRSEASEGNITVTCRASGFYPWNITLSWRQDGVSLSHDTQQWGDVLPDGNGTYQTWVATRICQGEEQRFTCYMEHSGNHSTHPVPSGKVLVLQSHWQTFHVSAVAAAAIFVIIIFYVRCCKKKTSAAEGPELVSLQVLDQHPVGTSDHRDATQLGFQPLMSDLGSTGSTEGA
Experimental: as §1

Recombinant MICB protein = target: T3, Recombinant MICB protein (UniProt Q29980 23-298, limits assumed); test: ELISA, coated MICB, OD 450 nm
T3 construct: Coated on ELISA plates
T3 sequence (looked up): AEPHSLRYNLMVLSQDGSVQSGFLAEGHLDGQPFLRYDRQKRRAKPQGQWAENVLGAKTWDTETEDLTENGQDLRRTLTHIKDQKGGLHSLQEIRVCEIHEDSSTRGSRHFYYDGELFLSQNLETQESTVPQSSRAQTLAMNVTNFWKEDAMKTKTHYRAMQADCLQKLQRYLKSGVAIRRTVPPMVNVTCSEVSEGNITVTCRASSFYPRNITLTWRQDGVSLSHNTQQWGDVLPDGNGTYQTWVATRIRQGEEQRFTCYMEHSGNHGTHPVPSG
Experimental: as §1

[3] = target: T4, Recombinant MICA*04 protein; test: ELISA, coated MICA*04, OD 450 nm
T4 construct: Coated on ELISA plates
T4 sequence (Q29983 whole entry, looked up): T2 sequence (Q29983 whole entry, species assumed, looked up)
Experimental: as §1

[4] = target: T5, Recombinant MICA*08 protein; test: ELISA, coated MICA*08, OD 450 nm
T5 construct: Coated on ELISA plates
T5 sequence (Q29983 whole entry, looked up): T2 sequence (Q29983 whole entry, species assumed, looked up)
Experimental: as §1

[5] = target: T6, Recombinant MICA*02 protein; test: ELISA, coated MICA*02, OD 450 nm
T6 construct: Coated on ELISA plates
T6 sequence (Q29983 whole entry, species assumed, looked up): T2 sequence (Q29983 whole entry, species assumed, looked up)
Experimental: as §1

EC50 (read off the curve) [1]: ~0.03 µg/mL
EC50 (read off the curve) [2]: ~0.03 µg/mL
EC50 (read off the curve) (Recombinant MICB protein): ~0.03 µg/mL
EC50 (read off the curve) [3]: ~0.03 µg/mL
EC50 (read off the curve) [4]: ~0.03 µg/mL
EC50 (read off the curve) [5]: ~0.03 µg/mL
B1: 3F9.E4 (antibody, V domains shown)
VH: EVQLQESGEGLVKPGGSLKLSCAASGFTFSNYAMSWVRQTPEKRLEWVAYISPGGDYIYYADTVKGRFTISRDNARNTLYLQMSSLKSEDTAMYYCTTDRRHYGSYAMDYWGQGISVTVSS
VL: DIVMTQAAPSVPVTPGESVSISCRSSKSLLHSNGNTYLYWFLQRPGQSPQLLIYRMSNLASGVPDRFSGSGSGTAFTLRISRVEAEDVGVYYCMQHLEYPFTFGSGTKLEIK
notes: the mAb was captured on anti-mouse IgG Fc biosensors and detected with goat anti-mouse IgG, so it is a mouse IgG; also called anti-MICA/B mAb; anti-MICA antibody

EC50 (read off the curve) [1]: ~0.03 µg/mL
EC50 (read off the curve) [2]: ~0.03 µg/mL
EC50 (read off the curve) (Recombinant MICB protein): ~0.03 µg/mL
EC50 (read off the curve) [5]: ~0.03 µg/mL
B2: 16F10.C12 (antibody, V domains shown)
VH: EVQLQESGPGLVAPSQSLSITCTVSGFSLTAFGVNWVRQPPGKGLEWLGMIWGDGNTDYNSTLRSRLSISKDNSKSQVFLKLNSLQTDDTARYFCARETYYGNYAGLGYWGQGTLVTVSA
VL: QIVLTQSPAIMSASIGERVTMTCTASSSVSSNYLHWYQQKPRSSPKLWIYTTSNLASGVPTRFSGSGSGTSYSLTISSMEAEDAATYYCHQFHRSPFTFGSGTKLEIK
notes: as for B1
